Measured values from patent US5837813, “Fibronectin Type III polypeptides” (La Jolla Cancer Research Foundation, dated 1998).

Columns and labels:
[1] = biological target: T1, human fibronectin (human, UniProt P02751); test: solid-phase competition, 125I-fibronectin on coated fibronectin
[2] = biological target: T1, human fibronectin; test: solid-phase competition, 125I-14 kDa fragment on coated fibronectin

IC50 [1]: ~1000 nM
IC50 [2]: 1000 nM
Binder: NAPQPSHISKYILRWRPKNSVGRWKEATIPG [polypeptide P1]
